Target: T1, Stabilin CTD (C-terminal domain of stabilin-2, truncated intracellular region) (human, UniProt Q8WWQ8 2501-2551)
T1 sequence: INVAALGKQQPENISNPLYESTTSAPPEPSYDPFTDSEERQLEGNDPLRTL
Experiment: ITC

Binder: MSDKPDMAEIEKFDKSKLKKTETQEKNPLPSKETIEQEKQAGES (natural protein, not fully specified) [Thymosin β4]
- dH: -1.75 kcal/mol

— publication PMC5424802 (Intrinsically Disordered Proteins, 2013)
